Assay results: article PMC10593786

Assays:
[1] = biological target: FLMyo6 (T888D.Q892E.V903D) (human) (UniProt Q9UM54)
[2] = biological target: full-length wild-type Myo6, small insert isoform (FLMyo6 SI (WT)) (human) (UniProt Q9UM54)
[3] = biological target: Jo-Myo6-In heavy chain (Streptococcus pneumoniae | human); assay: co-purification, SDS-PAGE; CaM co-expressed with Jo-Myo6-In in Sf9 cells, purified by the Flag tag of the heavy chain, read by SDS-PAGE

Substance: FLMyo6 (T888D.Q892E.V903D) (from UniProt Q9UM54-5 1-1253; P0DP23 1-149) (complex)
- maximal actin-activated ATPase rate of FLMyo6 (T888D.Q892E.V903D) upon GIPC1 addition (loss of gating) [1]: 2 fold

Substance: full-length wild-type Myo6, small insert isoform (FLMyo6 SI (WT)) (from UniProt Q9UM54-2 1-1262; P0DP23 1-149) (complex)
- decrease in maximal actin-activated ATPase activity per Head of FLMyo6 (WT, no-insert isoform) upon addition of GIPC1, compared to monomeric MD^Ins2 (gating in a dimer) [2]: 50%

Substance: calmodulin (CaM) (from UniProt P0DP23 1-149) (natural protein)
- stoichiometry N (CaM per heavy chain) [3]: 2
